Data on two substances can be found in patent US20160151510A1.

Experiment [1] concerns the target GLP-1 receptor on CHO-K1/GLP1/Gal5 cells. Description: cell-based or functional assay.
Experiment [2] concerns the target GLP-1 receptor (covalently immobilized to the Biacore biosensor surface). Description: Biacore SPR, GLP-1 receptor covalently immobilized, peptide injected.

For the substance “5 kDa-PEG-Cys(37)-GLP-1 (from UniProt P01275 27-56) (peptide)”, in experiment [1], the EC50 of intracellular calcium mobilization (Calcium-4, FlexStation, RFU) came to 0.336 µM. In experiment [2], this substance showed a Kd of 1.6 µM.

Regarding “GLP-1 (7-36) (from UniProt P01275 27-56) (peptide)”, in experiment [2], the Kd was 1 µM.
